Measurements taken from patent US20240043507A1 (RQ BIOTECHNOLOGY, published 2024).

Key:
[1] = target: T1, SARS-CoV-2 receptor binding domain (RBD), native (SARS-CoV-2, UniProt P0DTC2 330-532); test: BLI, RBD/Fab; de-glycosylated Fab 88
T1 construct: range 330-532

[2] = target: T1, SARS-CoV-2 receptor binding domain …; test: BLI, RBD/Fab; glycosylated Fab 88
[3] = target: T1, SARS-CoV-2 receptor binding domain …; test: BLI, RBD/Fab; de-glycosylated Fab 316

B1: Fab 88, de-glycosylated (Fab, V domains shown)
VH: QLQLQESGPGLVKPSQTLSLTCTVSGGSISSGSYNWTWIRQPAGKGLEWIGRIYNSGSTNYNPSLKSRVTISVDTSKNQLSLKVRSVTAADTAVYYCARHCSGGTCYPKYYYGMDVWGQGTTVTVSS
VL: QSALTQPPSVSEAPRQRVTISCSGSSSNIGNNAVNWYQQFPGKAPKLLIYYDDLLPSGVSDRFSGSKSGTSASLAISGVQSEDEADYYCAAWDDSLNVVVFGGGTKLTVL
B1 was tested, and the Kd [1] was 0.8 nM.

B2: Fab 88 (Fab, V domains shown)
VH: QLQLQESGPGLVKPSQTLSLTCTVSGGSISSGSYNWTWIRQPAGKGLEWIGRIYNSGSTNYNPSLKSRVTISVDTSKNQLSLKVRSVTAADTAVYYCARHCSGGTCYPKYYYGMDVWGQGTTVTVSS
VL: QSALTQPPSVSEAPRQRVTISCSGSSSNIGNNAVNWYQQFPGKAPKLLIYYDDLLPSGVSDRFSGSKSGTSASLAISGVQSEDEADYYCAAWDDSLNVVVFGGGTKLTVL
notes: also called 88 Fab (glycosylated)
B2 was tested, and the Kd [2] was 1.2 nM.

B3: Fab 316, de-glycosylated (Fab, V domains shown)
VH: not shown
VL: QAVLTQPPSASGSPGQSVTISCTGTSSDVGGYNYVSWYQQHPGKAPKLMIYEVSKRPSGVPDRFSGSKSGNTASLTVSGLQAEDEADYYCSSYAGSNHWVFGGGTKLTVL
Binder B3 has a Kd [3] of 1 nM.
